Experimental data: patent US20160083466A1 (Regeneron, published 2016)

T1: human IL-25 expressed with a C-terminal myc-myc-hexahistidine tag (human)
T1 chain: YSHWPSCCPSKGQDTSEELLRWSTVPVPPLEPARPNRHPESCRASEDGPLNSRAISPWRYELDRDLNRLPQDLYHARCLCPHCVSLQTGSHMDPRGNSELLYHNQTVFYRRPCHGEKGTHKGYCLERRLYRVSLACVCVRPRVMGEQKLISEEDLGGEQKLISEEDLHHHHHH

T2: monkey IL-25 expressed with a C-terminal myc-myc-hexahistidine tag (M. fascicularis (cynomolgus monkey))
T2 chain: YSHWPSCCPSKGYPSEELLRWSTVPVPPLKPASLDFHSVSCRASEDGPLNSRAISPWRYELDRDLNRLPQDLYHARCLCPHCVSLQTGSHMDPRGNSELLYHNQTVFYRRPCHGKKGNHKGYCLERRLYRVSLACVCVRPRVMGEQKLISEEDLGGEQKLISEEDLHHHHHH

T3: mouse IL-25 expressed with a C-terminal myc-myc-hexahistidine tag (mouse)
T3 construct: also called Mouse IL-25-MMH; mIL-25-MMH
T3 chain: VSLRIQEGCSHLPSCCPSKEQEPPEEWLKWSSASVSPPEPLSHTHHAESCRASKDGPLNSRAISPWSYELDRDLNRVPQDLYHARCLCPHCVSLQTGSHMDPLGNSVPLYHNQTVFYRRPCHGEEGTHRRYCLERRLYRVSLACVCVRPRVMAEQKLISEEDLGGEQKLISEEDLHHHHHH

T4: rat IL-25 expressed with a C-terminal myc-myc-hexahistidine tag (rat)
T4 construct: also called Rat IL-25-MMH
T4 chain: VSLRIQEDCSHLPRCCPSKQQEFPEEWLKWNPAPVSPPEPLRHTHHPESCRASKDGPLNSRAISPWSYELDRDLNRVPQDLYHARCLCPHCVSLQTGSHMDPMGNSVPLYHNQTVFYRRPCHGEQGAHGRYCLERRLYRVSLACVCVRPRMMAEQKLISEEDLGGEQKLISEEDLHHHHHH


Legend:
[1] = biological target: T1, human IL-25 expressed with a C-terminal …; assay: cell-based or functional assay
[2] = biological target: T2, monkey IL-25 expressed with a …; assay: cell-based or functional assay
[3] = biological target: T2, monkey IL-25 expressed with a …; assay: SPR Biacore, antibody captured, 37C;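 on 100 nM Monkey IL-25-MMH Bound (RU): biacore 4000 surface plasmon resonance biosensor measuring binding of IL-25-MMH to purified anti-IL-25 antibodies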;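 on 100 nM Mouse IL-25-MMH Bound (RU): Real-time sensorgrams of IL-25-MMH binding to purified anti-IL-25 antibodies, rate constants obtained by fitting a 1:1 binding model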
Procedure: (§1) Equilibrium dissociation constants (KD values) for IL-25 binding to purified anti-IL-25 antibodies were determined using a real-time surface plasmon resonance biosensor assay on a Biacore 4000 instrument (GE Healthcare). […] All the IL-25 reagents were expressed with a C-terminal myc-myc-hexahistidine tag (referred to herein as “IL-25-MMH”). […] Kinetic association (kₐ) and dissociation (kd) rate constants were determined by fitting the real-time sensorgrams to a 1:1 binding model using Scrubber 2.0c curve fitting software.

[4] = biological target: T3, mouse IL-25 expressed with a C-terminal …; assay: SPR Biacore, antibody captured, 25C;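 on 100 nM Rat IL-25-MMH Bound (RU): purified anti-IL-25 antibodies were tested by real-time surface plasmon resonance on a Biacore 4000, with rate constants obtained from sensorgram fits to a 1:1 binding model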
[5] = biological target: T3, mouse IL-25 expressed with a C-terminal …; assay: SPR Biacore, antibody captured, 37C;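 on 100 nM Monkey IL-25-MMH Bound (RU): biacore 4000 surface plasmon resonance biosensor measuring binding of IL-25-MMH to purified anti-IL-25 antibodies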;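 on 100 nM Mouse IL-25-MMH Bound (RU): Real-time sensorgrams of IL-25-MMH binding to purified anti-IL-25 antibodies, rate constants obtained by fitting a 1:1 binding model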
[6] = biological target: T4, rat IL-25 expressed with a C-terminal …; assay: SPR Biacore, antibody captured, 25C;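 on 100 nM Rat IL-25-MMH Bound (RU): purified anti-IL-25 antibodies were tested by real-time surface plasmon resonance on a Biacore 4000, with rate constants obtained from sensorgram fits to a 1:1 binding model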
Procedure: as §1

[7] = biological target: T4, rat IL-25 expressed with a C-terminal …; assay: SPR Biacore, antibody captured, 37C;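 on 100 nM Monkey IL-25-MMH Bound (RU): biacore 4000 surface plasmon resonance biosensor measuring binding of IL-25-MMH to purified anti-IL-25 antibodies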;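 on 100 nM Mouse IL-25-MMH Bound (RU): Real-time sensorgrams of IL-25-MMH binding to purified anti-IL-25 antibodies, rate constants obtained by fitting a 1:1 binding model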
Procedure: as §1

[8] = biological target: T1, human IL-25 expressed with a C-terminal …; assay: BLI Octet, hIL-25-MMH captured on anti-Penta-His sensor, 25C
Procedure: Binding competition between anti-IL-25 monoclonal antibodies was determined using a real time, label-free bio-layer interferometry assay on an Octet QK384 biosensor (Pall ForteBio Corp.).
The biosensors were washed in HBST kinetics buffer in between every step of the experiment. The real-time binding response was monitored during the course of the experiment and the binding response at the end of every step was recorded.

[9] = biological target: T1, human IL-25 expressed with a C-terminal …; assay: competition ELISA, 2 nM hIL-25-MMH binding to coated hIL-17RB-hFc
Procedure: (§2) Data analysis was performed using a sigmoidal dose-response model within Prism™ software (GraphPad). […] The absorbance values of the wells containing the highest concentration for each antibody were used to determine the percent maximum blockade.

[10] = biological target: T1, human IL-25 expressed with a C-terminal …; assay: competition ELISA, 2 nM hIL-25-MMH binding to coated hIL-17RB-hFc; (*) below theoretical bottom of the assay
Procedure: as §2

IC50, luciferase reporter cells, 5 pM hIL-25-MMH [1] [M]	IC50, luciferase reporter cells, 12 pM MfIL-25-MMH [2] [M]	100 nM Monkey IL-25-MMH Bound (RU) [3] [RU]	Kd [3] [nM]	koff [3] [s⁻¹]	kon [3] [M⁻¹ s⁻¹]	t½ [3] [min]	100 nM Mouse IL-25-MMH Bound (RU) [4] [RU]	binding result [4]	100 nM Mouse IL-25-MMH Bound (RU) [5] [RU]	100 nM Rat IL-25-MMH Bound (RU) [6] [RU]	binding result [6]	100 nM Rat IL-25-MMH Bound (RU) [7] [RU]	50 ug/mL mAb-1 Binding (nm) [8] [nm]	% Maximum blocking of 200 nM antibody [9] [%]	IC50 [10] [nM]	Binder	also measured
6.3e-11	3.7e-11	61	0.0236	7.14e-05	3.03e+06	162	0	no binding (tested: 100 nM)	2	0	no binding (tested: 100 nM)	2	0.88	92	0.2	H4H10861P (antibody, human IgG4, V domains shown, H4H prefix = human IgG4 Fc) VH: QVQLQESGPGLVKPSETLSLTCTVSGASISNYYWSWIRQPPGKGLEWIGYIFYSGNTNYNPSLKSRVTISVDTSKNQFSLKLSSVTAADTAVYYCARVRFSDYELNWFDPWGQGTLVTVSS VL: DIVMTQSPDSLAVFLGERATINCRSSQSVFLGSNNKNYLAWYQQKPGQPPKLLIYWASSRESGVPDRFSGSGSGTDFTLTINSLQAEDVAVYYCQQYFITPLTFGGGTKVEIK	
							0	no binding (tested: 100 nM)	2	-1		3	1.42			H1M11009N (antibody, mouse IgG1, V domains shown, H1M prefix = mouse IgG1 Fc) VH: EVQLVESGGGLVEPGGSLRLSCVASGFTFSNAWMNWVRQAPGKGLEWVGHIERKTDGGTTDFAAPVKGRFTISRDDSKNTLYLQMNSLKTEDTAVYYCTTVGPYSVPFDYWGQGTLVTVSS VL: not shown	
							17		27	18		20	1.38	70		H2aM10690N (antibody, V domains shown, also called H2M10690N) VH: QVQLVQSGAEVKKPGASVKVSCKASGYTFTSYGISWVRQAPGQGLEWMGWISAYNGNTNYAQKLQGRVTMTTDTSTSTAYMELRSLRSDDTAVYYCARVPITGTTWFDPWGQGTLVTVSS VL: not shown	Kd [4]: 82.3 nM; koff [4]: 0.00319 s⁻¹; kon [4]: 38800 M⁻¹ s⁻¹; t½ [4]: 4 min; Kd [5]: 81.7 nM; koff [5]: 0.00778 s⁻¹; kon [5]: 95300 M⁻¹ s⁻¹; t½ [5]: 1.5 min; Kd [6]: 103 nM; koff [6]: 0.0095 s⁻¹; kon [6]: 91800 M⁻¹ s⁻¹; t½ [6]: 1.2 min; Kd [7]: 115 nM; koff [7]: 0.0193 s⁻¹; kon [7]: 168000 M⁻¹ s⁻¹; t½ [7]: 0.6 min; IC50 [9]: 31 nM
1.8e-09							-1		2	0	no binding (tested: 100 nM)	3	0.81	98	0.43	H2aM11008N (antibody, V domains shown, also called H2M11008N) VH: QVQLQESGPGLVKPSETLSLTCTVSGGSISSHYWSWIRQPPGKGLEWIGFIYYSGSTNFNPSLKSRVTISIDTSKNQFSLKLSSVTAADTAVYYCARHDYNDYELNYFDLWGRGTLASVSS VL: not shown	
8.4e-11	3.3e-11	70	0.0589	0.000172	2.93e+06	67	0	no binding (tested: 100 nM)	2	1	no binding (tested: 100 nM)	1	0.83	89	0.24	H4H10862P (antibody, human IgG4, V domains shown, H4H prefix = human IgG4 Fc) VH: QVQLQESGPGLVKPSETLSLTCTVSGGSISSYFWSWIRQAPGKGLEWIGFIDYSGSTNYNPSLKSRVTISVDTSKNQFSLKLNSVTAADTAVYYCARQEIINFELNWFDPWGQGTLVTVSS VL: not shown	
